From patent US20240141045A1

Molecular target: PD-1 Fc fusion protein (UniProt Q15116)
Test: SPR (Biacore 3000), recombinant PD-1 Fc immobilised on CM5 chip, fusion protein injected

Chain of PD-1 Fc fusion protein (Q15116 25-167 limits assumed): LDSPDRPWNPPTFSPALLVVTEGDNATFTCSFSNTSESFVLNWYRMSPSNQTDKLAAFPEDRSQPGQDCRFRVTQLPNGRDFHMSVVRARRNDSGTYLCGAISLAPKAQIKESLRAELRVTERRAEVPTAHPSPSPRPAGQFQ

Kd: 0.563 nM
B1: Anti-PD1 (VH7-VL6) scFv-Fc-ADA2 (Fc fusion, part only; not given: scFv linker and Fc, not shown: a dimerising Fc or GST)
scFv (part 1 of 2), part: QVQLVQSGVEVKKPGASVKVSCKASGYTFTNYYMYWVRQAPGQGLEWMGGINPSNGGTNFNEKFKNRVTLTTDSSTTTAYMELKSLQFDDTAVYYCARRDYRFDMGFDYWGQGTTVTVSSEIVLTQSPATLSLSPGERATLSCRASKGVSTSGYSYLHWYQQKPGQAPRLLIYLASYLESGVPARFSGSGSGTDFTLTISSLEPEDFAVYYCQHSRDLPLTFGGGTKVEIK
scFv (part 2 of 2), part: GGGGSGGGGSIDETRAHLLLKEKMMRLGGRLVLNTKEELANERLMTLKIAEMKEAMRTLIFPPSMHFFQAKHLIERSQVFNILRMMPKGAALHLHDIGIVTMDWLVRNVTYRPHCHICFTPRGIMQFRFAHPTPRPSEKCSKWILLEDYRKRVQNVTEFDDSLLRNFTLVTQHPEVIYTNQNVVWSKFETIFFTISGLIHYAPVFRDYVFRSMQEFYEDNVLYMEIRARLLPVYELSGEHHDEEWSVKTYQEVAQKFVETHPEFIGIKIIYSDHRSKDVAVIAESIRMAMGLRIKFPTVVAGFDLVGHEDTGHSLHDYKEALMIPAKDGVKLPYFFHAGETDWQGTSIDRNILDALMLNTTRIGHGFALSKHPAVRTYSWKKDIPIEVCPISNQVLKLVSDLRNHPVATLMATGHPMVISSDDPAMFGAKGLSYDFYEVFMGIGGMKADLRTLKQLAMNSIKYSTLLESEKNTFMEIWKKRWDKFIADVATK
